Substrate: CC(=O)N[C@H]1[C@H](Oc2ccc([N+](=O)[O-])cc2)O[C@H](CO)[C@@H](O)[C@@H]1O
Test: purified protein
Settings: pH 5.5, 30 °C

B1: OfHex2 (Ostrinia furnacalis) (protein)
chain: IYNNNPGPKYPPTKGEVWPKPQYQKLERYYFTVNTSAFKIKATNHTCPILAKAIERYSFIMRNTFNLDLNRKPKTSRHRLPRETNSEDPYYQGLLKELDIELISPCEEYPYFNMDESYELTISTTAKLLSSSIWGILRGLESWSHLLYLTDDKDGVSIDICVNRTHIADFPRYAHRGLLLDTGRHFISMSNILKTLDAMAMNKLNVFHWHIVDDQSFPYQSEKFPDLSGKGAFDPSLVYTKDDIARVVQYATERGIRVLPEFDVPGHTRSWGEAFPNVLTECFSDGKVVGVGPMNPTVNTTYKLFQELMEEVQEWFPDKYFHIGGDEVQFDCWESNPDLQQYMKDHHMTATQLHALFMKNVIPLLGNNTKPIVWQEVFDVGVPLSSDTIIHVWKNGWVEEMVKILKAGHRLIFSASWYLDHLKTGGDWEDMYMADPRLMVNLVDDTAPLDNIVGGEACMWGEVVDDTNVINRVWPRTSAAAERLWSAGLASNSLERNVRLSILDKARHRIEEHACRMRRRAINAQPPNGPGFCVGAKLF
In the case of B1, the Km is reported as 463 ± 27 µM, the kcat is reported as 151 ± 6.21 s⁻¹ and the kcat/Km is reported as 326000 M⁻¹ s⁻¹.

— article PMC3445047
